Experimental data from the nanobody polyreactivity screen of Harvey et al. (2022).

experiment: yeast display, Sf9 membrane polyspecificity reagent, FACS + sequencing; frameworks hold sequencing errors
Outline: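 Galactose induction of a Saccharomyces cerevisiae BJ5465 synthetic nanobody display library ran 36–48 hours. The cells were then stained for 1 hour at 4 °C with 10% biotinylated, detergent-solubilized Sf9 membrane reagent, pulled down on streptavidin microbeads and FACS-sorted into low and high (top ~1%) gates on expression and reagent-binding fluorescence. Labels for polyreactivity follow the gate of origin.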

Row | Sequence | polyreactivity (PSR sort gate)
1 | QVQLVESGGGLVQEGGSHSLSCAASGRTFKYKAMGWSRPAPGKERELVASISGSGGRTYYADSVKGRFTISRDIAKNSVFLQMYRLNPEDTAVYFCNATRVKWLDWGQGTQVTVSS | high polyreactivity
2 | QVQLVESGGGLVQEGGSIRLSCAASGSTFFLYAMGWYRQAPGKERELVAAITYTDGDTYYADSVKGRFTISRDNAKNTVYLQMNSLKPEDNAVYYCNAGGDEPVYGSGYDYWGQGTQVTVSS | low polyreactivity
3 | QVQLVESGGGLVQEGGSLRLICAASGNTSPFYSMGWYRQAPGKERELVAAISANGGSTTYADSVKGRFTISRDNAKNTVYLQMNSLKTEVTAVYYCNTYYWYSGSPYVYWGQGTQVTVSS | low polyreactivity
4 | QVQLVESGGGLVQEGGSLRLICAASGRILRDNAMGWYRQAPGKERELVAAISVSTVSTYYADSVKGLFTISRDNANNTVYFHMNSLKPEDTAVYYCNADATDSYPEKDEHDSWGQGTQVTVSS | low polyreactivity
5 | QVQLVESGGGLVQEGGSLRLICAASGRTLYHYVMGWYSQAPGKERELVAAISSGGSTYYADSVKGRFTISRDNAKNTVYLQMNSLKPEDTAVYFCAAGRRGDWGQGTQVTVSS | high polyreactivity
6 | QVQLVESGGGLVQEGGSLRLRCAASGSIFYRYAMGWYRQAPGKERELVAAISSTGSTYYADSVKGRFTISRDNAKNTVYLQMNSLKPEDTAVYYCAARQGYRSYRRYDYWGQGTQVTVSS | high polyreactivity
7 | QVQLVESGGGLVQEGGSLRLSCAACGFTFTTNAMGWYRQAPGKERELVAGITFIGGSTYYADSVKGRFTISRDNAKNTVYLQMNNLKPEDTAVYYCAAEWVLVYLQYTYEDYDYWGQGTQVTVSS | low polyreactivity
8 | QVQLVESGGGLVQEGGSLRLSCAASGFIFFLNAMGWYRQAPGKERELVAAISSSGGRTYYADSVKGRFTISRDNAKITVYLQMNSLKTEVTAVYYCNAVTLYRSRTDGYWGQGTQVTVSS | high polyreactivity
9 | QVQLVESGGGLVQEGGSLRLSCAASGFIFRSYAMGWYRKAPGKERELVAAISSSGGSTYYADSVKGRFTISRDNAKNTVYLPMNSLKPEDTAVYYCAKGYQRGRDYWGQGTQVTVSS | high polyreactivity
10 | QVQLVESGGGLVQEGGSLRLSCAASGFSFERNAMGWDRQAPGKERELVATIPWSGTRTNYADSVKGRFTISRDNAKNTVYVQMNSLKPEDTAVYYCAVVVSAPSRESKSTVQMDYWGQGTQVTVSS | high polyreactivity
11 | QVQLVESGGGLVQEGGSLRLSCAASGFTFGSYAMGWYRQAPGTERELLAAITTDGSTYYADSVKGRFTISRDNAKNTVYLHMNSLKREDTAVYYCAAGYSYDRYGSDMDYWGQGTQVTVSS | low polyreactivity
12 | QVQLVESGGGLVQEGGSLRLSCAASGITFDNYDMGWYRQAPGKERELVAAISSDDNTTYADSVKGRFTISRDNAMNTVYFQMNSLKTDDTAVYYCAADYRIYGYLEYDYWGQGTQVTVSS | low polyreactivity
13 | QVQLVESGGGLVQEGGSLRLSCAASGITFDYYAMGLYRQAPGKERELVASISYSGGSTYADSVKGRFTISRDNAKNTVYLQMNSLKPEDTAVYYCAKDSQETAYNTVDYCGQGTQVTVSS | low polyreactivity
14 | QVQLVESGGGLVQEGGSLRLSCAASGLIVGQNAMGWYRQAPGKDRELVAAISQRGGTYYADSVKGRFTISRDNAKNTVYLQMNSLKPEDTAVLYCAARVGLQPGRYYLRYDYWGQGTQVTVSS | low polyreactivity
15 | QVQLVESGGGLVQEGGSLRLSCAASGNTVGINAMGWYRQAPGKERELVASISFTGSSTYYADSVKGRFTISRDNAKNTVYFQMNSLKPEDTAVSYCNRDRITLYEYDYWGQGTQVTVSS | low polyreactivity
16 | QVQLVESGGGLVQEGGSLRLSCAASGRIIERSAMGWYRQAPGKERELVAGISISGGGTYYADSVKGRFTISRDKAKNTVYLLMNCLKPEDTSVYYCAGTFPREEYGYWGQGTQVTVSW | low polyreactivity
17 | QVQLVESGGGLVQEGGSLRLSCAASGRIIEYNTMGLNRPATGKERELVAAITGGTGSTYYADSVKGRFTISRDNAKNTVYLQMNSLIPVDTSVYYCNADGMILYDYWGQGTQVTVSS | low polyreactivity
